Test results as given in patent US10772972B2, “Anti-STEAP2 antibody drug conjugates, and compositions and uses thereof” (Regeneron Pharmaceuticals, Inc., priority 2016, dated 2020).

Experiments:
[1] = system: PC3_STEAP2/1 cells (PC3 engineered to express a STEAP2/1 chimeric construct); assay: FACS binding titration of STEAP2xCD3 bispecifics on PC3_STEAP2/1 cells; design: species or system human; settings: 66.6 nM to 0.001 nM, 30 minutes at 4° C.
Method: (§1) FACS Binding Titration on Jurkat Cells, PC3_STEAP2/1 Cells and cynomolgus T Cells: Flow cytometric analysis was utilized to determine binding of STEAP2×CD3 bispecific antibodies to Jurkat, PC3_STEAP2/1 chimeric and cynomolgus T cells, followed by detection with a phycoerythrin (PE)-labeled anti-human IgG antibody. Briefly, 2×10^5 cells/well were incubated for 30 minutes at 4° C. with a serial dilution of STEAP2×CD3 bispecific antibodies or control antibody (a human IgG1 antibody that binds a feline antigen with no cross-reactivity to STEAP2 or human or cynomolgus CD3) ranging from 66.6 nM to 0.001 nM. After incubation, the cells were washed twice with cold PBS containing 1% filtered FBS and a PE-conjugated anti-human secondary antibody was added to the cells and incubated for an additional 30 minutes. Wells containing no antibody or secondary antibody only were used as a control. After incubation, cells were washed, re-suspended in 200 μL cold PBS containing 1% filtered FBS and analyzed by flow cytometry on a BD FACS Canto II.

cynomolgus T cells = assay: FACS binding titration of STEAP2xCD3 bispecifics on cynomolgus T cells; settings: 66.6 nM to 0.001 nM, 30 minutes at 4° C.
Method: as §1

monkey PBMCs = assay: T cell proliferation assay, cynomolgus PBMC; type: cell-based; settings: donor mk8781M; anti-CD28 500 ng/mL, 72 hours; read-out: Cyno PBMC Proliferation [M] (donor)
Method: Thawed human or freshly isolated monkey PBMCs (50,000 cells/well) were incubated with 3-fold (human, concentration range: 5E-10M to 2.82E-15M; cynomolgus, concentration range: 1E-09M to 4.57E-13M) serial dilutions of STEAP2×CD3 bispecifics or isotype control in complete medium (RPMI supplemented with 10% FBS, 100 U/mL penicillin, 100 μg/mL streptomycin, 292 μg/mL L-glutamine) and a fixed concentration (human: 200 ng/mL, cyno: 500 ng/mL) of a commercial anti-CD28 antibody (Biolegend, Catalog #302914) in white flat bottom 96-well plates for 72 hours at 37° C. Isolated monkey PBMCs were from two donors (identified as mk8781M or mk9381M). Following incubation, CellTiter Glo® (Promega, Cat #7573) was added and luminescence, as readout for cell viability, was measured using a VICTOR X5 multi-label plate reader. Cell titer was calculated by dividing the luminescence of stimulated cells by the baseline luminescence of unstimulated cells.

[2] = system: FADU cells (STEAP2 negative); assay: FACS binding to STEAP2-negative FADU cells; settings: human-Fc antibodies
Method: (§2) The ability of anti-STEAP2 antibodies to selectively bind to human six-transmembrane epithelial antigen of prostate 2 (STEAP2) endogenously expressing cell lines was determined via FACS analysis.
(§3) Briefly, 1×10^5 cells were incubated with 10 μg/ml of anti STEAP2 antibodies, or isotype control antibodies for 30 min on ice in antibody dilution buffer. Following one wash with antibody dilution buffer, cells were incubated with 10 μg/ml of PE conjugated anti-human or anti mouse Fc secondary antibodies for 30 min on ice. Following one additional wash, samples were incubated with Cytofix (1% formaldehyde) for 20 minutes. After one final wash, samples were filtered through a Pall 96 well filtration block, run on a Hypercyt® cytometer and analyzed in ForeCyt™ (IntelliCyt, Albuquerque, N. Mex.). Mean fluorescence intensities (MFI) were expressed as fold change above unstained levels (background). The average fold above background at antibody concentrations of 100-300 nM were determined. For cell binding EC50 determinations, mAb concentrations ranged from 300 nM to […] and EC50 values were determined from a four-parameter logistic equation over a 12-point response curve (GraphPad Prism).

[3] = system: SKBR3 cells (STEAP2 negative); assay: FACS binding to STEAP2-negative SKBR3 cells; settings: human-Fc antibodies
Method: as §2, §3

[4] = system: Raji cells (STEAP2 negative); assay: FACS binding to STEAP2-negative Raji cells; settings: human-Fc antibodies
Method: as §2, §3

[5] = system: C4-2 cells (high-STEAP2 expressing); assay: Internalization and total binding on C4-2 cells (imaging, qualitative score); type: cell-based, human; design: key: − (no internalization or binding); +(weak internalization or binding); ++(moderate internalization or binding); +++(robust internalization or binding); settings: 10 μg/ml antibody
How it was run: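 Live C4-2 cells were labelled on ice with antibody at 10 μg/ml, then with alexa488 anti-hFc Fab, and held 1 h at 37 °C in PBS+2% FBS or kept at 4 °C. After fixation and DRAQ5 nuclear stain, images were scored visually (− to +++) for total binding and vesicular internalization.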

hSTEAP1 fused to GFP = molecular target: T1, hSTEAP1 fused to GFP (Homo sapiens, UniProt Q9UHE8); assay: Specificity: binding to HEK293 cells transfected with hSTEAP1-GFP; design: key: Wells with GFP positive cells that bound anti STEAP2 antibodies were scored as positive (+); those that did not bind anti STEAP2 antibodies were scored as negative (−); settings: transient transfection, 48 h
T1 construct: expressed in transfected cells; host or cells: HEK293
T1 sequence (Q9UHE8 whole entry, the tested form may be a part): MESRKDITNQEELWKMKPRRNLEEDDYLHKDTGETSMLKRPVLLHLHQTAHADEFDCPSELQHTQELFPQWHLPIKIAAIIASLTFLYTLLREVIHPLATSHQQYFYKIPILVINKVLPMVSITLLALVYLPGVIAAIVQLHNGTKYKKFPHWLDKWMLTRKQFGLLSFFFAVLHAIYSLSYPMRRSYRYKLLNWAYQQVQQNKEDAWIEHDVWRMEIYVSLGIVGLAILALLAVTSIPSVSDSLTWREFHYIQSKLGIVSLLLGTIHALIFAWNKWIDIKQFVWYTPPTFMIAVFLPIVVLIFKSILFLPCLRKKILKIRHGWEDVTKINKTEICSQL
Method: (§4) Selected STEAP2 antibodies were then tested for binding to other human (h) STEAP family members (STEAP1, STEAP3, and STEAP4). To assess anti STEAP2 antibody specificity, plasmid constructs expressing hSTEAP1, hSTEAP2, hSTEAP3 or hSTEAP4 fused to Green Fluorescent Protein (GFP) were transiently introduced into HEK293 cells via lipofectamine 2000 based methodology. After 48 h, transiently transfected cells were stained with anti STEAP2 antibodies and imaged as described above for the internalization assay.

hSTEAP2 fused to GFP = molecular target: T2, hSTEAP2 fused to GFP (Homo sapiens, UniProt Q8NFT2); assay: Specificity: binding to HEK293 cells transfected with hSTEAP2-GFP; design: key: Wells with GFP positive cells that bound anti STEAP2 antibodies were scored as positive (+); those that did not bind anti STEAP2 antibodies were scored as negative (−); settings: transient transfection, 48 h
T2 construct: expressed in transfected cells; host or cells: HEK293
T2 sequence (Q8NFT2 1-490): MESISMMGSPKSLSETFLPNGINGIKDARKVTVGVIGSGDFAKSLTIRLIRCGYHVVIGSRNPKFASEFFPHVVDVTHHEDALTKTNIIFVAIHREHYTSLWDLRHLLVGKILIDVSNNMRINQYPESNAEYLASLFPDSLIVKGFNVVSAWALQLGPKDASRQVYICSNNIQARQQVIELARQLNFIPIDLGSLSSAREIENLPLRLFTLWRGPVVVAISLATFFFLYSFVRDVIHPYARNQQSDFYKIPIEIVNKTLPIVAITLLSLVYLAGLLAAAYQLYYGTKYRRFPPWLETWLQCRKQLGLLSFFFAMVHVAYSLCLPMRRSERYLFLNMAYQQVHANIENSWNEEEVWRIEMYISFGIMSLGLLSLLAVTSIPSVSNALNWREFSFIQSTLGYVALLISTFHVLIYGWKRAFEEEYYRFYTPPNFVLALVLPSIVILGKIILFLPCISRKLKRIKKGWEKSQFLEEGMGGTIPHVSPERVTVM
Method: as §4

hSTEAP3 fused to GFP = molecular target: T3, hSTEAP3 fused to GFP (Homo sapiens, UniProt Q658P3); assay: Specificity: binding to HEK293 cells transfected with hSTEAP3-GFP; design: key: Wells with GFP positive cells that bound anti STEAP2 antibodies were scored as positive (+); those that did not bind anti STEAP2 antibodies were scored as negative (−); settings: transient transfection, 48 h
T3 construct: expressed in transfected cells; host or cells: HEK293
T3 sequence (Q658P3 1-488): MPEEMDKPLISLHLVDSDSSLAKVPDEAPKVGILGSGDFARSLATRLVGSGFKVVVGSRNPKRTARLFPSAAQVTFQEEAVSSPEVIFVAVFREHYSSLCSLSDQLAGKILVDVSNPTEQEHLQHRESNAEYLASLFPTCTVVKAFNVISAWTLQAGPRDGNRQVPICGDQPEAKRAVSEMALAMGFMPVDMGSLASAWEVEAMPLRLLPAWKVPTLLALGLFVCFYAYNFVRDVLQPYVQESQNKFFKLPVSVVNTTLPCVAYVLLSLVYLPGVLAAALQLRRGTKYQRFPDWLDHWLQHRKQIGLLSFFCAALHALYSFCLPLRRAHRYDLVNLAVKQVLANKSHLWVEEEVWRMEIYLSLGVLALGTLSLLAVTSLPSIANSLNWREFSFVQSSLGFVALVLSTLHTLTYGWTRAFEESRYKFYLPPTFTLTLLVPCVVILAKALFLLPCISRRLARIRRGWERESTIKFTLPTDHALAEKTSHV
Method: as §4

hSTEAP4 fused to GFP = molecular target: T4, hSTEAP4 fused to GFP (Homo sapiens, UniProt Q687X5); assay: Specificity: binding to HEK293 cells transfected with hSTEAP4-GFP; design: key: Wells with GFP positive cells that bound anti STEAP2 antibodies were scored as positive (+); those that did not bind anti STEAP2 antibodies were scored as negative (−); settings: transient transfection, 48 h
T4 construct: expressed in transfected cells; host or cells: HEK293
T4 sequence (Q687X5 1-459): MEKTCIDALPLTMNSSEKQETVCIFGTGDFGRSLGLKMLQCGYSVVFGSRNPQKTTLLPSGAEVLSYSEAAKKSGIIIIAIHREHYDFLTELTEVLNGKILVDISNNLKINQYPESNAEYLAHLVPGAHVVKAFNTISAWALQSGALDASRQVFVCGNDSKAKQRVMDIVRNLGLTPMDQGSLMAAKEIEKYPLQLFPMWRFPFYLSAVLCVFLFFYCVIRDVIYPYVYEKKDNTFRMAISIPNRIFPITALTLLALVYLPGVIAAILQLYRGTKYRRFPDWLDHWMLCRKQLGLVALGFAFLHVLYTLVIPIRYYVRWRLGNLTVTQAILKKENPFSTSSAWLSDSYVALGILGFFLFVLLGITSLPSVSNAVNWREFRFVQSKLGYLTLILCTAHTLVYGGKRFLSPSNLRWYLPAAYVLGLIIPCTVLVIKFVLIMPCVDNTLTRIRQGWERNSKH
Method: as §4

human CD3 (Jurkat cells) = assay: FACS titration of anti-CD3 antibodies on Jurkat cells; type: binding; settings: anti-CD3 antibody
Source text: See, e.g. FACS binding experiments outlined in Example 12 and in PCT/US2016/044732 filed Jul. 29, 2016.

B1: BSSTEAP2/CD3-011: STEAP2×CD3 bispecific: anti-STEAP2 H1H7809N (SEQ 330), anti-CD3 H1H7203P (SEQ 1474), common LCVR of H1H7809N (antibody, V domains shown)
VH 1: QVQLVESGGGVVQPGRSLGLSCAASGFTFSSYGMHWVRQAPGKGLEWVAVIWYDGSNKYYVDSVKGRFTISRDNSKNTLYLQMNSLRAEDTAVYYCAREGLRFLENYYYYYGMDVWGQGTTVTVSS
VH 2: EVQLVQSGGGLVQPGRSLRLSCAASGFTFADYTMHWVRQTPGKGLEWVSGISWNSGSKDYADSVKGRFTISRDNAKNSLYLQMNSLRTEDTALYYCAKYGSGYGRYFFYAMDVWGQGTTVTVSS
VL: EIVLTQSPGTLSLSPGERATLSCRASQSISSTYLAWYQQRPGQAPRLLIYGASSRATGIPDRFSGSGSGTDFTLTISRLEPEDFAVYYCQQYGTSPYTFGQGTKLEIK
- FACS PC3_STEAP2/1 EC50 [M] [1]: No Binding
- Cynomolgus T cells EC50 [M] (cynomolgus T cells): No Binding
- EC50 (monkey PBMCs): 3.6e-12 M

B2: H1H7972P: anti-STEAP2 antibody, HCVR/LCVR SEQ ID NOs 186/194 (antibody, V domains shown)
VH: QVQLQQSGPGLVKPSQTLSLTCAISGDSVSSNSAAWNWIRQSPSRGLEWLGRTYYRSKWYNDYVVSVKSRIIFNPDTSKNQFSLQLNSVTPEDTAVYYCARVRQDYRSGPFDYWGQGTLVTVSS
VL: EIVMTQSPVTLSVSPGERATLSCWASQSVSSSLAWYQQKPGQAPRLLIYGASTRATGIPARFSGSGSGTGFTLTISSLQSEDFAVYYCQQYNNWPFTFGPGTKVDIK
- FADU Avg F.A.B (Fold Above Background) [2]: 2 fold
- SKBR3 Avg F.A.B (Fold Above Background) [3]: 3 fold
- Raji Avg F.A.B (Fold Above Background) [4]: 59 fold
- Internalization (37° C., 1 h) Qualitative Score [5]: +
- Total Binding (4° C.) Qualitative Score [5]: +
- Binding to hSTEAP1-GFP transfected HEK293 cells (hSTEAP1 fused to GFP): −
- Binding to hSTEAP2-GFP transfected HEK293 cells (hSTEAP2 fused to GFP): +
- Binding to hSTEAP3-GFP transfected HEK293 cells (hSTEAP3 fused to GFP): −
- Binding to hSTEAP4-GFP transfected HEK293 cells (hSTEAP4 fused to GFP): −

B3: CD3-VH-G: anti-CD3 antibody engineered from CD3-VH-P to contain only germline frameworks, HCVR SEQ ID NO: 1730 (antibody, V domains shown)
VH: EVQLVESGGGLVQPGRSLRLSCAASGFTFDDYSMHWVRQAPGKGLEWVSGISWNSGSKGYADSVKGRFTISRDNAKNSLYLQMNSLRAEDTALYYCAKYGSGYGKFYHYGLDVWGQGTTVTVSS
VL: DIQMTQSPSSLSASVGDSVTITCRASQSINNYLNWYQQKPGKAPKLLIYTASSLLSGVPSRFSGSGSGTDFTLTISGLHPEDFATYFCQQSFSTPPITFGQGTRLDIK
- EC50, FACS titration of Jurkat cells (human CD3) (human CD3 (Jurkat cells)): retained their binding affinity
